B1: antibody 10-9 (antibody, V domains shown)
VH: QSLEESGGDLVKPGASLTLTCTASGFSFSSGYWICWVRQAPGKGLEWIACIYTGDGDTSYASWAKGRFTISKTSSTTVTLQMTSLTVADTAIYFCARDTSGTFYYNLWGPGTLVAVSS
VL: AAVLTQTPSSVSAAVGGTVTISCQSSESVYKTNYLSWFQKKPGQPPKLLIYDASTLASGVPSRFSGSGSGTQFTLTISDLECDDAATYYCAGGYSDDINAFGGGTEVEIK
notes: Rabbit monoclonal
B2: antibody 12-10 (antibody, V domains shown)
VH: B1 VH
VL: B1 VL
notes: Rabbit monoclonal
B3: antibody 12-1 (antibody, V domains shown)
VH: B1 VH
VL: DVVMTQTPSPVSAPVGGTVTINCQASQNIYSNLAWYQQKPGQPPKLLIYGASTLASGVSSRFKGSRSGTEFTLTISDLECADAATYYCQSYVYSSSTADTFGGGTKVVVE
notes: Rabbit monoclonal
B4: antibody 12-3 (antibody, V domains shown)
VH: B1 VH
VL: B3 VL
notes: Rabbit monoclonal

Key:
[1] = molecular target: exemplary TAT frataxin fusion molecule (HIV-1) (UniProt Q16595); assay: PK sandwich ELISA in human plasma, antibody as capture, HRP anti-frataxin mAb detection
[2] = molecular target: exemplary TAT frataxin fusion molecule (HIV-1) (UniProt Q16595); assay: immunopurification from plasma on antibody-coated magnetic beads, trypsin digest, LC/MS of peptide …
[3] = molecular target: exemplary TAT frataxin fusion molecule (HIV-1) (UniProt Q16595); assay: bridging (ADA) assay in human plasma: antibody titrated with biotinylated and sulfo-tagged TAT frataxin fusion molecule, streptavidin plate, ECL read-out
[4] = molecular target: T1, exemplary TAT frataxin fusion molecule (HIV-1, UniProt Q16595 1-210); assay: PK sandwich ELISA in human plasma, antibody as capture, HRP anti-frataxin mAb detection
T1 construct: in the bridging assays biotinylated and sulfotagged forms were used; also called TAT-FXN fusion molecule; TAT FXN fusion molecule
T1 sequence: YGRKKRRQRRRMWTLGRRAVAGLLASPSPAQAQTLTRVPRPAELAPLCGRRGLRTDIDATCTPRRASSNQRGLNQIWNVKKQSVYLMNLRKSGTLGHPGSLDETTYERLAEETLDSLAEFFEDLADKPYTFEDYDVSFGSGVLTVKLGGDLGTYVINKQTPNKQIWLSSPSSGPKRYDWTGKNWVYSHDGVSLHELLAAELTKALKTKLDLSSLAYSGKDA

Molecule	Mean OD at plasma conc. 0.400 ng/mL [4] [OD]	Mean OD at plasma conc. 0.800 ng/mL [4] [OD]	Mean OD at plasma conc. 1.60 ng/mL [4] [OD]	Mean OD at plasma conc. 3.20 ng/mL [4] [OD]	Mean OD at plasma conc. 6.40 ng/mL [4] [OD]	Mean OD at plasma conc. 12.8 ng/mL [4] [OD]	Mean OD at plasma conc. 25.6 ng/mL [4] [OD]	Mean OD at plasma conc. 51.2 ng/mL [4] [OD]	S/N at plasma conc. 0.400 ng/mL [4]	S/N at plasma conc. 0.800 ng/mL [4]	S/N at plasma conc. 1.60 ng/mL [4]	S/N at plasma conc. 3.20 ng/mL [4]	S/N at plasma conc. 6.40 ng/mL [4]	S/N at plasma conc. 12.8 ng/mL [4]	S/N at plasma conc. 25.6 ng/mL [4]	S/N at plasma conc. 51.2 ng/mL [4]	also measured
polyclonal anti-TAT E8332 polyclonal antibody																	Mean OD at plasma conc. 0.400 ng/mL [1]: 0.075 OD; Mean OD at plasma conc. 0.800 ng/mL [1]: 0.113 OD; Mean OD at plasma conc. 1.60 ng/mL [1]: 0.165 OD; Mean OD at plasma conc. 3.20 ng/mL [1]: 0.322 OD; Mean OD at plasma conc. 6.40 ng/mL [1]: 0.631 OD; Mean OD at plasma conc. 12.8 ng/mL [1]: 1.08 OD; Mean OD at plasma conc. 25.6 ng/mL [1]: 1.83 OD; Mean OD at plasma conc. 51.2 ng/mL [1]: 3.1 OD; S/N at plasma conc. 0.400 ng/mL [1]: 1.5; S/N at plasma conc. 0.800 ng/mL [1]: 2.3; S/N at plasma conc. 1.60 ng/mL [1]: 3.4; S/N at plasma conc. 3.20 ng/mL [1]: 6.6; S/N at plasma conc. 6.40 ng/mL [1]: 12.9; S/N at plasma conc. 12.8 ng/mL [1]: 22.1; S/N at plasma conc. 25.6 ng/mL [1]: 37.3; S/N at plasma conc. 51.2 ng/mL [1]: 63.3; LC/MS signal after immunopurification, fold higher than with anti-TAT antibody ab63957 [2]: 5 fold higher; EC50 (read off the curve) [3]: 20 mg/L
B1	0.077	0.1	0.14	0.229	0.437	0.781	1.49	2.77	1.6	2.1	3	4.9	9.3	16.6	31.7	59	
B2	0.067	0.089	0.141	0.242	0.447	0.818	1.51	2.79	1.4	1.8	2.9	4.9	9.1	16.7	30.8	57	
B3	0.067	0.088	0.137	0.229	0.433	0.795	1.44	2.67	1.4	1.9	2.9	4.9	9.2	16.9	30.7	56.8	
B4	0.067	0.091	0.133	0.22	0.416	0.767	1.45	2.78	1.6	2.1	3.1	5.1	9.7	17.8	33.7	64.6	

— patent publication US20230061973A1 (LARIMAR THERAPEUTICS, published 2023)
